Results as given in article PMC6009646, “Regional conformational flexibility couples substrate specificity and scissile phosphate diester selectivity in human flap endonuclease 1”.

Target: hFEN1QF (Homo sapiens, UniProt P39748 1-336, E120C;C235A;S293C;C311A)
Assay: single-molecule FRET; 8 mM Ca2+; 20 nM DNA, ~50 pM protein; NMR: 10 mM HEPES-KOH pH 7.5, 6 mM KCl (76 mM KCl in titration), 0.1 mM EDTA, 4 mM NaN3, 100 mM bME, 298 K; smFRET: 55 mM HEPES-KOH pH 7.5, 110 mM KCl, 8 mM CaCl2, 0.1 mg/ml BSA, 1 mM DTT, room temperature
Conditions: protein: recombinant; tags: C-terminal HRV 3C-cleavable His6, cleaved; six residual C-terminal residues of the 3C site; bimolecular double flap: 5-nt 5' flap, 1-nt 3' flap; T1 has a GAA hairpin; F1:T1 annealed 1:1.1

hFEN1QF, sequence (P39748 1-336 E120C/C235A/S293C/C311A): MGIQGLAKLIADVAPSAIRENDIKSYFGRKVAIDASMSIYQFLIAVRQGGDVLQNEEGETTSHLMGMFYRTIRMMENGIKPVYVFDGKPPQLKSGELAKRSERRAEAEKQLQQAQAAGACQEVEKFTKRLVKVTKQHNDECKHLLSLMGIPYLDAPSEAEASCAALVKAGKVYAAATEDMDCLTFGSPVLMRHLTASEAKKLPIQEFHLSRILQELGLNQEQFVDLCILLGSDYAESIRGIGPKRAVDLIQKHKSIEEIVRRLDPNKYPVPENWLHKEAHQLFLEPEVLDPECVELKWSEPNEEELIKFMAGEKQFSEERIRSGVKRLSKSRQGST

B1: DF5,1 (F1/T1) (structured_DNA)
DNA 1: TTTTTACAAGGACTGCTCGACAC
DNA 2: GTGTCGAGCAGTCCTTGTGACGACGAAGTCGTCC
  binding result: binds
